Measurements as given in paper PMC5058683, “Structural basis for small molecule targeting of the programmed death ligand 1 (PD-L1)” (Oncotarget, 2016).

Biological target: human PD-1 (33-150, Cys93 exchanged to serine) (human, UniProt Q15116 33-150, Cys93 exchanged to serine)
Test: NMR titration; AIDA assay: 15N-labelled PD-1 (0.2 mM) slightly overtitrated with unlabelled PD-L1; 1H-15N HMQC linewidths; 300 K; complex mass estimated from relaxation time analysis
Conditions: both partners purified

human PD-1 (33-150, Cys93 exchanged to serine), sequence (Q15116 other isoform, or with tags, fused parts or gaps Cys93 exchanged to serine | Cys93 exchanged to serine): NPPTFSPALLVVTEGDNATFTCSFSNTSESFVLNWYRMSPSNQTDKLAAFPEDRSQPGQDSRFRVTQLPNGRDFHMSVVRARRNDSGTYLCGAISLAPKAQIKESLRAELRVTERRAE

B1: human PD-L1 (amino acids 18-134) (domain or fragment)
chain: AFTVTVPKDLYVVEYGSNMTIECKFPVEKQLDLAALIVYWEMEDKNIIQFVHGEEDLKVQHSSYRQRARLLKDQLSLGNAALQITDVKLQDAGVYRCMISYGGADYKRITVKVNAPY
notes: human PD-L1 (programmed death ligand 1), amino acids 18-134, the distal extracellular IgG like domain; Cloned into pET-21b; The vector may add a C-terminal His tag with a short linker (surmised), and the deposited entries 5J89 and 5J8O would show it; Made in bacteria, so not glycosylated; Uniformly 15N-labelled in some NMR experiments; also called hPD-L1; programmed death ligand 1
  stoichiometry N: 1
